Laboratory results as given in PMC10696396, “HilE represses the activity of the Salmonella virulence regulator HilD via a mechanism distinct from that of intestinal long-chain fatty acids” (The Journal of Biological Chemistry, 2023).

T1: EYFP-HilD (Salmonella enterica, UniProt P0CL08 1-309)
T1 construct: HilD of Salmonella enterica, UniProt P0CL08; eyfp was ligated (BamHI/EheI) into the SUMO-HilD expression vector that gives the full-length HilD; EYFP is the fluorescent label used for MST detection; also called EYFP-HilD fusion protein; source: E. coli C41(DE3), purified (Ni-NTA, SUMO protease cleavage, second Ni-NTA, SEC on Superdex 200); not shown: His6-SUMO, N-terminal, cleaved; EYFP, …
T1 sequence: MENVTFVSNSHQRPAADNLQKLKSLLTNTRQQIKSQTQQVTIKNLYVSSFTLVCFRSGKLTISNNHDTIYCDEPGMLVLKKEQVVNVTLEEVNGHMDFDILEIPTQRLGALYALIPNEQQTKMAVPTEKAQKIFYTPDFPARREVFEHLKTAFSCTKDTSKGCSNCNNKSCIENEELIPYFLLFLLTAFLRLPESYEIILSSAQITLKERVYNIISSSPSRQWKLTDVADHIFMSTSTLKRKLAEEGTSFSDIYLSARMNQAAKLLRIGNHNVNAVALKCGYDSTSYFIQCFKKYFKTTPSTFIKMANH

B1: HilD NTD (residues 7-206) (domain or fragment)
chain: VSNSHQRPAADNLQKLKSLLTNTRQQIKSQTQQVTIKNLYVSSFTLVCFRSGKLTISNNHDTIYCDEPGMLVLKKEQVVNVTLEEVNGHMDFDILEIPTQRLGALYALIPNEQQTKMAVPTEKAQKIFYTPDFPARREVFEHLKTAFSCTKDTSKGCSNCNNKSCIENEELIPYFLLFLLTAFLRLPESYEIILSSAQIT
notes: a His6 tag stands in place of the first six residues of HilD; No cleavage of the His6 tag is described (no protease site, purification goes from Ni-NTA to SEC); also called HilD_(7-206) (NTD); His6-tagged HilD NTD construct; source: E. coli C41(DE3), purified (Ni-NTA, SEC on Superdex 75); not shown: His6, N-terminal, kept
B2: HilD (full-length, unfused) (natural protein)
chain: T1 sequence
notes: HilD, AraC/XylS transcription regulator of Salmonella enterica, UniProt P0CL08; Exclusively a homodimer alone by SEC-MALS; a single copy stands in the 1:1 complex with HilE; also called unlabeled HilD; unfused HilD; source: E. coli C41(DE3), purified (Ni-NTA, SUMO protease cleavage, second Ni-NTA, SEC); not shown: His6-SUMO, N-terminal, cleaved

What was measured:
[1] = biological target: the molecule itself; assay: SEC-MALS; Superdex 75 Increase 10/300 GL, 50 mM NaH2PO4 pH 7.0, 200 mM NaCl, 0.5 ml/min; protein concentrations of 100 μM (Fig. 4, D and E)
EYFP-HilD [2] = biological target: T1, EYFP-HilD; assay: MST; homodimerization: unlabeled HilD titrated against EYFP-HilD preincubated with 1% DMSO; MST on-time 1.5 s, 25 °C; details: both partners purified
EYFP-HilD [3] = biological target: T1, EYFP-HilD; assay: MST; homodimerization: unlabeled HilD (3.05 nM to 100 μM) titrated against 50 nM EYFP-HilD; 25 °C, 0.05% Pluronic F-127, protein storage buffers; dimer to monomers; details: both partners purified

Row | Binder | stoichiometry N [1] | Kd (EYFP-HilD [2]) | Kd (EYFP-HilD [3])
1 | B1 | 2 |  | 
2 | B2 | 2 | 4.33 ± 0.72 µM | 3.85 ± 0.63 µM
